Experimental data as given in US20160200789A1, “IL4 CONJUGATED TO ANTIBODIES AGAINST EXTRACELLULAR MATRIX COMPONENTS” (PHILOGEN S.P.A., priority 2013, published 2016).

Key:
[1] = tested on: imiquimod (IMQ)-induced ear inflammation in C57BL/6 mice; test: IMQ-induced inflammation model of psoriasis; type: in vivo, mouse
Protocol: C57BL/6 mice (Charles River, Germany) were treated on each side of each ear with 5 mg Aldara cream (containing 0.25 mg Imiquimod). The treatment schedule is illustrated in FIG. 11A. The Aldara cream was applied every day for 5 days (on day 1, 2, 3, 4 5 and […]: each application is illustrated by an asterisk in FIG. 11A). Ear thickness was measured with a caliper before the application of the cream. […] Treatment was repeated on day 9 and 11 (each treatment event is illustrated by an arrow in FIG. 11A).

[2] = target: T1, EDA domain of fibronectin (Homo sapiens, UniProt P02751); test: Surface plasmon analysis (BIAcore) on EDA antigen-coated sensor chip; type: binding
T1 construct: surface plasmon analysis (BIAcore) on an EDA antigen-coated sensor chip
Text: The fusion protein was expressed and purified to homogeneity as described for F8-IL4 above.

[3] = tested on: tumour neovascular structures in murine F9, CT26 and A20 tumours; test: Immunofluorescence on untreated tumour sections; set-up: species or system mouse; conditions: biotinylated protein on F9, CT26 and A20 tumour sections
Text: For detection streptavidin-Alexa Fluor 488 and anti-rat-Alexa Fluor 594 (Invitrogen) were used. Slides were mounted with fluorescent mounting medium (Dako) and analyzed with an Axioskop2 mot plus microscope (Zeiss).

CT26 colon carcinoma = test: Ex vivo immunofluorescence of CT26 tumours; type: in vivo, mouse
Text: In order to study a second immunocompetent mouse model of cancer, the inventors focused on Balb/c mice (obtained from Elevage Janvier [France]) bearing subcutaneous CT26 tumours of colorectal origin.

[4] = tested on: endometriotic lesions in Balb/c mice; test: Endometriosis model in Balb/c mice; type: in vivo, mouse
Protocol: Endometriosis was induced in sixty eight-week old female Balb/c mice according to the protocol described by Somigliana et al. (1999).
One day after the implantation of endometrial tissue, pairs of mice (who received tissue from the same donor) were treated either with intravenous (i.v.) injections of F8-murine IL4 (200 μg/mouse; SEQ ID NO: 21) or PBS (group 1); or with i.v. injections of KSF-murine IL4 (200 μg/mouse; SEQ ID NO: 44) or PBS (group 2). The same treatment was repeated at days 4 and 7. Mice were sacrificed at day 15.

F9 teratocarcinoma [5] = test: Ex vivo immunofluorescence of treated F9 tumours; type: in vivo, mouse; conditions: ex vivo immunofluorescence after i.v. administration
Protocol: For ex vivo detection of the localization of the IL4-based immunocytokines and of tumour infiltrating cells after therapy, mice were injected three times with the appropriate proteins as for therapy experiments and sacrificed two days after the last injection. Tumours were excised, embedded in cryoembedding medium (Thermo Scientific) and cryostat sections (10 μm) were stained using the antibodies: Anti-IL4 antibody (eBioscience), CD45 (leukocytes, BD Biosciences), CD4 (CD4+Tcells, BioXCell), CD8 (CD8+Tcells, BioXCell), F4/80 (macrophages, Abcam), Asialo GM1 (NK cells, Wako Pure Chemical Industries), CD45R (B cells, eBioscience), Foxp3 (eBioscience), CD31 (Santa Cruz); and detected with AlexaFluor488 respectively AlexaFluor594 coupled secondary antibodies (Invitrogen). Slides were mounted with fluorescent mounting medium (Dako) and analyzed with an Axioskop2 mot plus microscope (Zeiss).

A20 lymphoma [6] = test: Biodistribution and ex vivo immunofluorescence in A20 tumour-bearing mice; conditions: after i.v. administration
[7] = tested on: CHS-induced ear inflammation in K14-VEGF-A mice; test: Contact hypersensitivity-induced ear inflammation in K14-VEGF-A mice; type: in vivo, mouse
Text: A delayed-type hypersensitivity reaction was induced in the ear skin of female FVB mice that overexpress VEGF-A in the epidermis under control of the human keratin 14 promoter as previously described (Detmar et al., 1998; Kunstfeld et al., 2004; Xia et al., 2003). Heterozygous VEGF-A transgenic mice with no pre-existing inflammatory lesions were sensitized by topical application of a 2% oxazolone (4-ethoxymethylene-2-phenyl-2-oxazoline-5-one; Sigma) solution in acetone/olive oil (4:1 vol/vol) to the shaved abdomen (50 μl) and each paw (5 μl). Five days after sensitization, the ears were challenged by topical application of 20 μl of a 1% oxazolone solution. Therapy was started on day 7 and repeated at day 9, 11 and 13. […] Ear thickness was measured every other day and at day 15, mice were sacrificed and ear draining lymph nodes were weighted. The timeline for this experiment is illustrated in FIG. 13A. Each treatment event is indicated by an arrow.

A20 lymphoma [8] = test: Therapy studies in A20 tumour-bearing mice; conditions: 90 μg i.v. every second day
Text: Data represent mean tumour volumes (±SEM), n=5 mice per group. […] Data represent mean tumour volumes (±SEM), n=5 mice per group.
Differences in tumor volume, % ID/g and Tumor-to-blood ratio between therapeutic groups were compared using Graphpad Prism's repeated measures (mixed model) ANOVA analysis.
For this, as well as the other experiments described below, F9 teratocarcinoma (CRL-1720; ATCC, Molsheim Cedex, France), CT26 colon carcinoma (CRL-2638; ATCC, Molsheim Cedex, France) and A20 lymphoma (TIB-208; ATCC, Molsheim Cedex, France) were grown according to the supplier's protocol and tumour cells implanted subcutaneously in the flank using 25×10^6 cells (F9), 2×10^6 cells (CT26) or 8×10^6 cells (A20). F9 teratocarcinoma cells were implanted into 129/SvEv mice (Charles River, Sulzfeld, Germany), CT26 colon carcinoma cells were implanted into Balb/c mice (Elevage Janvier, Le Genest-St-Isle, France) and A20 lymphoma cells were implanted into Balb/c mice (Elevage Janvier, Le Genest-St-Isle, France). Mice were sacrificed when tumour volumes reached a maximum of 2000 mm^3.

[9] = tested on: collagen induced arthritis in DBA/1J mice; test: Aggressive collagen induced arthritis model, targeted vs untargeted IL4 (Example 3a); type: in vivo, mouse; conditions: 100 μg/injection i.v., days 1, 3 and 7
Protocol: Injections were administered on day 1, 3 and 7.

F9 teratocarcinoma [10] = test: Quantitative biodistribution in F9 tumour-bearing mice; type: in vivo, mouse
Protocol: The in vivo targeting performance was assessed by quantitative biodistribution where 15 μg of radioiodinated fusion protein was injected i.v. into the lateral tail vein of immunocompetent 11-12 week old female Sv129Ev mice (obtained from Charles River [Germany]), bearing sub-cutaneously grafted F9 tumours (for labelling protocol, see (Pasche et al. 2011)). Mice were sacrificed 24 hours after injection, organs were excised, weighed and radioactivity was measured using a Packard Cobra γ counter.

[11] = tested on: collagen induced arthritis in DBA/1J mice; test: Aggressive collagen induced arthritis model, F8-IL4 dose comparison (Example 3); type: in vivo
Protocol: Animals showing signs of joint inflammation with a total score of 1 to 3 were included in the therapy experiments. When the joint inflammation was too high at day one (more than one paw, score>3) mice were not included in the therapy experiments. Experiments were performed under a project license granted by the Veterinaeramt des Kantons Zuerich, Switzerland (208/2010).
The dose for TNFR-Fc was determined by calculations from the human ENBREL dose and the approximate local TNF concentration compared with the bioactivity of the fusion protein.

[12] = Solubility of the product (limit of dose escalation); type: physicochemical; conditions: doses above 90 μg could not be tested
[13] = 200 μg/mouse i.v. days 1, 4, 7, day 15, vs PBS
[14] = 15 μg radioiodinated protein i.v., 24 hours

T1 sequence (P02751 1727-1814 limits assumed): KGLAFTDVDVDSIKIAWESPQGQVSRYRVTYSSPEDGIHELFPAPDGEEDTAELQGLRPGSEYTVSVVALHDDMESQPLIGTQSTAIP

B1: F8-IL4: antibody F8 (anti-EDA of fibronectin) in diabody format fused at the C-terminus to murine interleukin 4 via 15 amino acid linker (protein)
chain: EVQLLESGGGLVQPGGSLRLSCAASGFTFSLFTMSWVRQAPGKGLEWVSAISGSGGSTYYADSVKGRFTISRDNSKNTLYLQMNSLRAEDTAVYYCAKSTHLYLFDYWGQGTLVTVSSGGSGGEIVLTQSPGTLSLSPGERATLSCRASQSVSMPFLAWYQQKPGQAPRLLIYGASSRATGIPDRFSGSGSGTDFTLTISRLEPEDFAVYYCQQMRGRPPTFGQGTKVEIKSSSSGSSSSGSSSSGHIHGCDKNHLREIIGILNEVTGEGTPCTEMDVPNVLTATKNTTESELVCRASKVLRIFYLKHGKTPCLKKNSSVLMELQRLFRAFRCLDSSISCTMNESKSTSLKDFLESLKSIMQMDYS
modifications: Synthetic sequence Amino acid sequence of F8 -(murine) IL4 of PCT/EP2014/053998
notes: antibody F8 (anti-EDA of fibronectin) in diabody format fused at the C-terminus to murine interleukin 4 via 15 amino acid linker
[1]; 100 μg i.v. days 7, 9, 11, day 13, vs PBS or KSF-IL4
  ear thickness: significantly reduced ear thickness
[1]; day 13
  ear draining lymph nodes (weight): smaller
[1]; mouse, in vivo
  decrease in ear thickness from treatment initiation (day 7): significantly more than in mice receiving either PBS, F8-SIP or KSF-IL4 treatment
[2]
  affinity for the cognate antigen: retained a high-affinity for the cognate antigen
[3]
  recognition of tumour neovascular structures: able to recognize tumour neovascular structures
CT26 colon carcinoma
  accumulation at the tumour site: preferentially accumulated at the tumour site
[4]; 200 μg/mouse i.v.
  mice completely cured of the disease: three mice out of ten
[4]; [13]
  number of the endometriotic lesions: statistically significant reduction
  volume of the endometriotic lesions: statistically significant reduction
F9 teratocarcinoma [5]
  accumulation on CD31-positive tumour neo-vascular structures: preferential accumulation
A20 lymphoma [6]
  accumulation around tumour neo-vascular structures: preferential accumulation
[7]; 100 μg i.v. days 7, 9, 11, 13, vs PBS or KSF-IL4
  ear thickness: significantly reduced ear thickness
[7]; day 15
  ear draining lymph nodes (weight): smaller
[7]; mouse, in vivo
  decrease in ear thickness from treatment initiation (day 7): significantly more than treatment with either FSF-IL4, F8-SIP or PBS
A20 lymphoma [8]
  tumour growth retardation: superior tumour growth retardation compared to KSF-IL4
[9]
  activity in reducing arthritic score and paw swelling compared to KSF-IL4: statistically significant superior activity
F9 teratocarcinoma [10]; [14]
  accumulation at the tumour site (% ID/g): preferential accumulation
  tumour-to-blood ratio: 12
F9 teratocarcinoma [10]; 24 hours after i.v. injection
  clearance from the blood stream: fast clearance from the blood stream
[11]; 100 μg vs TNFR-Fc 30 μg
  reduction in paw swelling compared with murine version of ENBREL: at least equivalent
[11]; 100 μg/injection
  tolerability: well tolerated
  weight change: lost less weight than mice receiving only the buffer vehicle (PBS)
[11]; 100 μg/injection i.v., days 1, 4 and 7
  disease-modulating effect (arthritic score): at least as potent as the murine version of Enbrel (TNFR-Fc)
[11]; 100 μg, vs buffer vehicle or low dose
  paw swelling: less severe paw swelling than mice receiving only the buffer vehicle or low amounts of F8-IL4
[12]
  solubility: insufficient solubility
